According to paper PMC9214244, “Multivalent Interaction of Beta-Catenin With its Intrinsically Disordered Binding Partner Adenomatous Polyposis Coli” (Frontiers in Molecular Biosciences, 2022):

Experiments:
[1] = biological target: pAPCabc, full-length R3 domain APCabc containing all five phosphomimetics, fluorescein-labelled at Cys 1501 (UniProt P25054); assay: fluorescence polarisation; fluorescence anisotropy; β-catenin titrated into 10 nM fluorescein-labelled APC construct; PBS, 1 mM DTT; 15°C; adjusted anisotropy fitted to a Hill equation
[2] = biological target: pAPCabc with the rigid linker (RL) inserted between residues 1,500 and 1,501, fluorescein-labelled at Cys 1501 (UniProt P25054); assay: as above
[3] = biological target: pAPCabc with the flexible linker (FL) inserted between residues 1,500 and 1,501, fluorescein-labelled at Cys 1501 (UniProt P25054); assay: stopped-flow fluorescence; association: 25 nM fluorescein-labelled APC mixed 1:1 by volume with 250-2,000 nM β-catenin (pseudo first-order); dissociation: pre-formed 1:1 complex (200 nM) mixed with 10 times molar excess of the same APC construct; PBS, 1 mM DTT; 15°C
[4] = biological target: APCabc with the flexible linker (FL) inserted between residues 1,500 and 1,501, fluorescein-labelled at Cys 1501 (UniProt P25054); assay: as above
[5] = biological target: pAPCabc, full-length R3 domain APCabc containing all five phosphomimetics, fluorescein-labelled at Cys 1501 (UniProt P25054); assay: as above
[6] = biological target: APCbc, APC R3 subdomains b and c (residues 1,483–1,533), fluorescein-labelled at Cys 1501 (UniProt P25054); assay: as above
[7] = biological target: APCabc with the rigid linker (RL) inserted between residues 1,500 and 1,501, fluorescein-labelled at Cys 1501 (UniProt P25054); assay: as above
[8] = biological target: pAPCabc with the polyproline linker (PP) inserted between residues 1,500 and 1,501, fluorescein-labelled at Cys 1501 (UniProt P25054); assay: as above
[9] = biological target: pAPCabc D1486S, fluorescein-labelled at Cys 1501 (UniProt P25054); assay: as above
[10] = biological target: APCabc, third 20aa repeat (R3) region of APC with subdomains a, b and c, fluorescein-labelled at Cys 1501 (UniProt P25054); assay: as above
[11] = biological target: APCabc with the flexible linker (FL) inserted between residues 1,478 and 1,479, fluorescein-labelled at Cys 1501 (UniProt P25054); assay: as above
[12] = biological target: pAPCabc with the rigid linker (RL) inserted between residues 1,500 and 1,501, fluorescein-labelled at Cys 1501 (UniProt P25054); assay: as above
[13] = biological target: pAPCabc D1486S, fluorescein-labelled at Cys 1501 (UniProt P25054); assay: fluorescence polarisation; fluorescence anisotropy; β-catenin titrated into 10 nM fluorescein-labelled APC construct; PBS, 1 mM DTT; 15°C; adjusted anisotropy fitted to a Hill equation

armadillo (ARM) repeat domain of human β-catenin (residues 134–671), sequence (P35222 other isoform, or with tags, fused parts or gaps): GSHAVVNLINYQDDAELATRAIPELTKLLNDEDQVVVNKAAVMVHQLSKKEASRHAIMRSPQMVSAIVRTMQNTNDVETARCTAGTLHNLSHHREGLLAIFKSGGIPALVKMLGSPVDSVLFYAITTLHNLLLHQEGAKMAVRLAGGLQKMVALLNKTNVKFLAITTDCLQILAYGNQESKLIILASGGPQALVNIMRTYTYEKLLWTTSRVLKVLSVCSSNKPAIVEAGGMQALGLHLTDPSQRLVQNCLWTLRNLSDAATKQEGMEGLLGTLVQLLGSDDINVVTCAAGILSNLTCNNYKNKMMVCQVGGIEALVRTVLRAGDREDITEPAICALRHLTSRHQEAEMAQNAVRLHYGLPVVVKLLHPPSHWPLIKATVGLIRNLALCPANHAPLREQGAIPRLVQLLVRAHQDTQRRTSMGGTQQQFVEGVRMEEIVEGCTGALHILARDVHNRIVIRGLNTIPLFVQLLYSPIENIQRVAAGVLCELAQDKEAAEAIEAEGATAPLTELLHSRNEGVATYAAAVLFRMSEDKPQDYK

Kd [1]: 5.3 nM
Kd [2]: 10.8 nM
koff fast [3]: 0.16 s⁻¹
koff slow [3]: 0.0085 s⁻¹
kon [3]: 1.01e+08 M⁻¹ s⁻¹
time constant τ (from the fast off-rate) [3]: 4.45 s
koff fast [4]: 0.45 s⁻¹
koff slow [4]: 0.1 s⁻¹
kon [4]: 2.41e+07 M⁻¹ s⁻¹
time constant τ (from the fast off-rate) [4]: 1.54 s
koff fast [5]: 0.07 s⁻¹
koff slow [5]: 0.0021 s⁻¹
kon [5]: 2.07e+08 M⁻¹ s⁻¹
time constant τ (from the fast off-rate) [5]: 9.51 s
koff fast [6]: 0.73 s⁻¹
kon [6]: 1.48e+07 M⁻¹ s⁻¹
time constant τ (from the fast off-rate) [6]: 0.96 s
koff fast [7]: 0.89 s⁻¹
koff slow [7]: 0.223 s⁻¹
kon [7]: 1.81e+07 M⁻¹ s⁻¹
time constant τ (from the fast off-rate) [7]: 0.8 s
koff fast [8]: 0.44 s⁻¹
koff slow [8]: 0.018 s⁻¹
kon [8]: 8.97e+07 M⁻¹ s⁻¹
time constant τ (from the fast off-rate) [8]: 1.59 s
koff fast [9]: 2.89 s⁻¹
koff slow [9]: 0.4 s⁻¹
kon [9]: 1.51e+08 M⁻¹ s⁻¹
time constant τ (from the fast off-rate) [9]: 0.24 s
koff fast [10]: 0.46 s⁻¹
koff slow [10]: 0.11 s⁻¹
kon [10]: 4.92e+07 M⁻¹ s⁻¹
time constant τ (from the fast off-rate) [10]: 1.54 s
koff fast [11]: 0.77 s⁻¹
koff slow [11]: 0.177 s⁻¹
kon [11]: 8.35e+07 M⁻¹ s⁻¹
time constant τ (from the fast off-rate) [11]: 0.9 s
koff fast [12]: 0.21 s⁻¹
koff slow [12]: 0.0122 s⁻¹
kon [12]: 1.02e+08 M⁻¹ s⁻¹
time constant τ (from the fast off-rate) [12]: 3.52 s
Kd [13]: 30 nM
Substance: armadillo (ARM) repeat domain of human β-catenin (residues 134–671) (from UniProt P35222 134-671) (domain or fragment)
